Measured values: the DeepSol protein solubility set

Assay: soluble on expression in E. coli; label from the status in PepcDB or PDB records

Sequence	soluble on expression in E. coli
MSRFQTLTPASLSREAFIEAFADIYEHSPWVAEKAYDLGIDDSLNDIEGLHQRMADILLSASREAQLALINAHPDLAGKAAIRGELTASSTSEQAGAGIHECSAEEFARFTELNDAYKARFGFPFIKAVKGSNRHQILAAFEERIQHSADEEFATALAEINKIALFRLQQL	not soluble
MSLEKLTYAEVVNVIDGQVLGGRAGLHKTLNKFVIGAMELDAMMRYTAAGNLLIVGNRINAHRQALEAGAAVLVTGGFNTDDSIVQLADELELPILSTSYDTFTVAAMINRAIYDQLIKKEIVLVEDILTPADRTVYLSPKDKLEKWYEKNFETGHGRFPVVDDQMKIHGILTSKDIAGHDRNASIEKVMTKNPVTVIGKTSVASAAQMMVWEGIEVLPVTDGHQKLIGMISRQDVLKALQMIQKEGHHHHHH	soluble
DTVKIDANVNYQIIQGFGGMSGVGWINDLTTEQINTAYGSGVGQIGLSIMRVRIDPDSSKWNIQLPSARQAVSLGAKIMATPWSPPAYMKSNNSLINGGRLLPANYSAYTSHLLDFSKYMQTNGAPLYAISIQNEPDWKPDYESCEWSGDEFKSYLKSQGSKFGSLKVIVAESLGFNPALTDPVLKDSDASKYVSIIGGHLYGTTPKPYPLAQNAGKQLWMTEHYVDSKQSANNWTSAIEVGTELNASMVSNYSAYVWWYIRRSYGLLTEDGKVSKRGYVMSQYARFVRPGALRIQATENPQSNVHLTAYKNTDGKMVIVAVNTNDSDQMLSLNISNANVTKFEKYSTSASLNVEYGGSSQVDSSGKATVWLNPLSVTTFVSK	soluble
MSLGYNFHLSDMQAQLEQQAAEEETLKQQFSTKAFQAANLEAYKAQMKEMEESFGALLRQLPSDTEVPGLLEDITRTGLGSGLEFEEIKLLPEVAQQFYIELPIQISVVGGYHDLATFVSGVSSLPRIVTLHDFEIKPVAPGSTSKLRMSILAKTYRYNDKGLKKEGHHHHHH	soluble
LRGFIIGRFQPFHKGHLEVIKKIAEEVDEIIIGIGSAQKSHTLENPFTAGERILMITQSLKDYDLTYYPIPIKDIEFNSIWVSYVESLTPPFDIVYSGNPLVRVLFEERGYEVKRPEMFNRKEYSGTEIRRRMLNGEKWEHLVPKAVVDVIKEIKGVERLRKLAQTDK	soluble
MSLKLVKLETFSTEFVCFVRATAEDGAQGWGQVAPYYADITAQVLHRQVAPYALGMACEDIDAMLDIVRDREHKFPGSYLRRAMGGVDTALWDMHGRRAGKPVCVLIGGTPGPVRAYGSSMKRDITPRDEAARLVRLRDEQGFDAFKFRIGAEVGRDRDEWPGRTEEIVPTMRRAMGDDVALLVDANSCYSPARAIEVGRMLEQHGISHYEEPCPYWEFAQTKEVTDTLDLDITGGEQDCLMERWQTMIADRVVDVLQPDICYLGGLSRTLRVARMAEAAGMPITPHAANLSMVTLFTMHLLRAIPNAGKYLEFSIEGLDYYPWQQGLFTSDPYRIEEGHATVTDAPGWGVDVNPDWLARSEGHHHHHH	not soluble
MSLTELSAFPITRKWPAKHPERLQLYSLPTPNGVKVSIMLEEIGLAYEAHKVSFDNDDQLSPEFISLSANNKIPAILDPNGPGGQPLALFESGAILQYLAEKSGQLLSQDPAQRYQTLQWLMFQMGGIGPMFGQVGFFHFFAGKEYEDKRPRDRYVNESKRLLGVLDRHLKGRQWMAEEYSIADIAIFPWVRNLVERYNARDLVGFDQFKEVQRVLANFLERPAVQRGLKIPGEGHHHHHH	soluble
MIDTPDLETRAAPEDHHALRLWLRMLTCCNLIESEIRSRLRTEFDTTLPRFDLMAQLQRAPKGMKMGELSRHMMVTNGNITGITDQLEKEGLVVRTKVESDRRSSVLKLTPQGKRTFARMARAHESWVTGMLDDLPEASRHAMYKALGELKLQVVAHRALAQRDGAS	not soluble
MSVLIPLVTVDGRDSVLLTKRSIHLRSHRGEVCFPGGRMDPGETTTETALRETFEEIGVNAESVEIWGHLKSVIRRQADFNVTPIVGYISDERVLENLVVNSDEVQAVFTIPIDELIKKAGLTKFQSKRMKYTLPSFDSTEFKVHHNAPNEYLHSTQRVWGLSGVMLHQALTLLNPDVYKHDLIVKFF	not soluble
KAPLDEIADDSFWSDETLVKYYVNDLYSEISVDGLQLQENRSDNSVSAQRDKYRASWFKFNYDMVSASDPQDDDVWEDYYVKVRKCNRFFERIGTSTIEESEKSRLTGEVHFLRAMFYFEMVKRYGGVILLDKVLTMEDNWEIPRSSEKECYDFILEDLKKATEMLPASYGSREKGRATKGAAYALKSRVELYDKRYEDVIKSCAEVYKLGYELVDGTTPEKYRSIWWTTNKDNKEIIFDVQYKSPDVYNNMMVCNMVTYINDKYGDRGWGGLGPTQELIDAFEMADGTPATQYSQAPADQVFDINTCGIYEGREPRFYANIVFHGSQIFFNADKGAVTVDRYLMDTPDKGDGSLTGYNVWKWIDYDNYNYPYAGAGSPDFSTNWIILRYAEIYLNDAEARLETGDVEGARKAVNMIRQRVGLPDLTESDPEKLRELIRKERRIEFAFEEQRFYDVRRWKIGPETQTTLHGVRFVSPTEFKVTKTDIRTWNDRLYLTPVPHDEIVRSSVLKQNLGY	soluble
LADSSDVTEVENYMKANYDVPNNVYFGKAEGKNVIYVSLESLQSFIIDYKIDGKEVTPFLNKLAHDNETFYFDNFFHQTGQGKTSDAEFMMENSLYPLAQGSVFVNKAQNTLQSVPAILKSKNYTSATFHGNTQTFWNRNEMYKAEGIDKFFDSAYYDMNEENTKNYGMKDKPFFKESMPLLESLPQPFYTKFITLSNHFPFGMDEGDTDFPAGDFGDSVVDNYFQSAHYLDQSIEQFFNDLKKDGLYDKSIIVMYGDHYGISENHNKAMAKVLGKDEITDYDNAQLQRVPLFIHAAGVKGEKVHKYAGDVDVAPTILHLLGVDTKDYLMSGSDILSKEHREVIPFRNGDFISPKYTKISGKYYDTKTGKELDESEVDKSEDSLVKKELEMSDKIINGDLLRFYEPKGFKKVNPSDYDYTKHDEDSSETSKDNEDK	soluble
MHMSQSTQRAYQEVLDWLEKELRKGSIAIGDKLPGERALAEQFELSRASVREAIRILTSMGLVRTGTGSGPHSGAIVISEPSAGLSWAIRMHLSARSLPLKDLVNTCILIESNAAADAATPKISPDSPERSHVLNEAHRLLDSMDDPTLPFHDYHIKDVNFHILITSLAGNLVTETIMESLRYSAIAFVIERLAMRTDWAEVSEKLQREHRNILRAIEERNPDKARTLVHDHIADFYELTSH	not soluble
MGSDKIHHHHHHMLYDVAIIGGGPSGAAAAEILARAGHSTILIERNLANVKPCGGAIPLGLIEEFDIPDELVEKKLTRMSVRSPKGETIFMHMPNGYVGMVRRERFDRYLREKAQKAGAEVVEALVKKIERSVDRFTLQLFNKEGEALPPVEASYVIGADGANSKTADELGFPPNDLKVIAMQQRFHYCDELKPYEELVEIWFDGEVSPDFYGWIFPKTDHIAIGTGTEEHRNDIKQLQHRFVEKIGIAEKPYLNEAAKIPMKPRRSFTQERAILVGDAAGLVTPANGEGIFFAMRSGKLGAEAMIERIRNNTPLSSYEKKFRKLYSPIFFGLQVLQSVYYKSDRLRESFVAICRDKDVQGITFDSYLYKKMVPAPWSVQMKIMAKNIYHLAKGS	not soluble
MSSSPVKRQRMESALDQLKQFTTVVADTGDFHAIDEYKPQDATTNPSLILAAAQMPAYQELVEEAIAYGRKLGGSQEDQIKNAIDKLFVLFGAEILKKIPGRVSTEVDARLSFDKDAMVARARRLIELYKEAGISKDRILIKLSSTWEGIQAGKELEEQHGIHCNMTLLFSFAQAVACAEAGVTLISPFVGRILDWHVANTDKKSYEPLEDPGVKSVTKIYNYYKKFSYKTIVMGASFRNTGEIKALAGCDFLTISPKLLGELLQDNAKLVPVLSAKAAQASDLEKIHLDEKSFRWLHNEDQMAVEKLSDGIRKFAADAVKLERMLTERMFNAENGK	soluble
MGSDKIHHHHHHMENIVELINVTKTFKDFSINKMDLQVKKGFVTGFIGANGAGKSTTIKMMMNLLKPDDGEVKLFGMDYTTHEKAIKERIGFVYDGNVFFEGLNLKDIKHIVGPAYKRWDDTLFYQYVDKFELPLNKAIKTFSKGMQMKASLAIALSHHAELIIMDEPTAGLDPIFRRELLDILQELMIDNDRTIFFSTHITTDLDRIADYIAFMQGGNLVFNQSIHDIDENYALVKGGLDLLDKDTEKAFVHVRRASTGFEALTNNLSAVKNIFGDTVIIERATLEDIMYYMKGGVHYV	not soluble
MGSSHHHHHHSSGLVPRGSHMSNQEAIGLIDSGVGGLTVLKEALKQLPNERLIYLGDTARCPYGPRPAEQVVQFTWEMADFLLKKRIKMLVIACNTATAVALEEIKAALPIPVVGVILPGARAAVKVTKNNKIGVIGTLGTIKSASYEIAIKSKAPAIEVTSLACPKFVPIVESNQYRSSVAKKIVAETLQALQLKGLDTLILGCTHYPLLRPVIQNVMGSHVTLIDSGAETVGEVSMLLDYFDIAHTPEAPTQPHEFYTTGSAKMFEEIASSWLGIENLKAQQIHLGGNEND	soluble
MGPAPRILELFYDVLSPYSWLGFEVLCRYQHLWNIKLQLRPTLIAGIMKDSGNQPPAMVPRKGQYIFKEIPLLKQFFQVPLNIPKDFFGETVKKGSINAMRFLTTVSMEQPEMLEKVSREIWMRVWSRDEDITEYQSILAAAVKAGMSTAQAQHFLEKISTQQVKNKLIENTDAACKYGAFGLPTTVAHVDGKTYMLFGSDRLELLAYLLGEKWMGPVPPTANARL	soluble
GRPVITTSIVQDQGIDELEAAIASLFFESGIESGDVTYVSNSRHIALLEQAKRAVEDALEAIEMDVPIDMVQIDITRAWELLGEIIGDSVHESLIDQLFSQFCLG	soluble
MGHHHHHHSHMALAARLLPQFLHSRSLPCGAVRLRTPAVAEVRLPSATLCYFCRCRLGLGAALFPRSARALAASALPAQGSRWPVLSSPGLPAAFASFPACPQRSYSTEEKPQQHQKTKMIVLGFSNPINWVRTRIKAFLIWAYFDKEFSITEFSEGAKQAFAHVSKLLSQCKFDLLEELVAKEVLHALKEKVTSLPDNHKNALAANIDEIVFTSTGGISIYYDEKGRKFVNILMCFWYLTSANIPSETLRGASVFQVKLGNQNVETKQLLSASYEFQREFTQGVKPDWTIARIEHSKLLE	not soluble
MSLSKSTFEIKNGHFYRNGKITPVLSGEMHYARIPHQYWRHRLQMMKGMGLNTVATYVFWNLHEPEPGKWDFTGDKNLAEFIKTAGEEGMMVILRPGPYVCAEWEFGGYPWWLQNVKGMEIRRDNPEFLKYTKAYIDRLYKEVGSLQCTKGGPIVMVQCENEFGSYVAQRKDIPLEEHRAYNAKIKQQLADAGFNVPLFTSDGSWLFEGGATPGALPTANGESDIENLKKVVDQYHDGKGPYMVAEFYPGWLSHWAEPFPQIGASGIARQTEKYLQNDVSFNFYMVHGGTNFGFTSGANYDKKRDIQPDMTSYDYDAPISEAGWVTPKYDSIRNVIKKYVKYTIPEAPAPNPVIEIPSIQLNKVADVLAFAEKQKPVSSDTPLTFEQLNQGYGYVLYTRHFNQPISGTLEIPGLRDYAVVYVDGEQVGVLNRNTKTYSMEIEVPFNATLQILVENMGRINYGSEIVHNTKGIISPVQIAGKEIVGGWDMYQLPMDEMPDLTKLKADTHKNVPSEVAKLKGCPVLYEGTFTLDKVGDTFMDMESWGKGIVFVNGVNIGRYWKVGPQQTLYVPGVWLKKGENKIVIFEQLNETPQTEVKTVKTPVLMKLKGEGHHHHHH	soluble
ASSNANQAITSENSIKPKGKLQPQMEKYTLTYFNGRGRAEVIRLLFALANVSYEDNRITRDEWKYLKPRTPFGHVPMLNVSGNVLGESHAIELLLGGRFGLLGTNDWEEAKIMAVVLNIDELFQKLIPWTHEKNTTKKAELFRNLSESDVMPFLGRYEKFLKESTTGHIVGNKVSVADLTVFNMLMTLDDEVKLEEYPQLASFVNKIGQMPGIKEWIKKRPKTYF	soluble
